Source: PMC9933121 (Proceedings of the National Academy of Sciences of the …, 2023)

Tests used:
[1] = target: T1, DENV2 strain 16681 premembrane (prM) protein, wild type (Dengue virus 2 strain 16681 (NC_001474)); test: cell-based or functional assay
T1 chain: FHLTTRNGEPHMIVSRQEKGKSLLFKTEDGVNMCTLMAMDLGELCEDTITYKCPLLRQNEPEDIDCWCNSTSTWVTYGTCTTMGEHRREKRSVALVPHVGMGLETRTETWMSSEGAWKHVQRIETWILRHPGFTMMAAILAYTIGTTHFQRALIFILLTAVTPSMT

[2] = target: DENV2 strain 16681 premembrane (prM) protein, wild type (dengue virus 2 strain 16681)
[3] = target: trimeric prM–E spike of immature DENV2 strain 16681 virions (dengue virus 2 strain 16681); test: cryo-EM structure

B1: prM13, murine prM-reactive monoclonal antibody (IgG2c) (antibody, V domains shown)
VH: AAQLQESGPELVKPGASVKISCKASGYTFTDYFINWVRQSHGKSLEWIGDFYPNNRGPTYNQKFEGKATLTVDKSSSTAYMELRSLTSDDSAVYYCARGLWDAWLSYWGQGTLVTVSA
VL: AIVATQSPAIMSASPGEKVTISCSASSSVSYMYWYQQKPGSSPKPWIYRTSNLASGVPTRFSGSGSGTSYSFTISSMEAEDAATYYCQQYHNYPRTFGGGTKAKSA
- neutralisation of DENV2 RVPs, EC50 of the sensitive fraction of virions [1]: ~5 ng/mL

B2: prM12, murine prM-reactive monoclonal antibody (IgG2c) (antibody, V domains shown)
VH: EVQLQESGPELVKPGTSVKMSCKASGYTFTDYNIHWVKQSHGKSLEWIGYINPNNGGNKYTQKFEGRATLTVGKSSSTAYMELRSLTSEDSAVYYCARSPMYFYYDGSYYFDYWGQGTSLSVSS
VL: DIVLTQSPASLAVSLGQRATISYRASKSVSTSGYSYMHWNQQKPGQPPRLLIYLVSNLESGVPARFSGSGSGTDFTLNIHPVEEEDAATYYCQHIRELTFGAAPSAAAR
- neutralisation of DENV2 RVPs, EC50 of the sensitive fraction of virions [2]: 5 ng/mL

B3: prM12 Fab fragment (Fab, V domains shown)
VH: B2 VH
VL: B2 VL
- occupancy [3]: 100%
